Where no end group is shown, it is not given here.
T1: Rasa1b (Rasa1 sequence 174-447) without biotin (for MST) (UniProt P20936 174-447)
T1 construct: same linear template as m11, cloned into pIX3.0; source: cell-free (RTS500 PM HY kit, plasmid pIX3.0), partly purified by buffer exchange to PBS and ultracentrifugation
T1 sequence (looked up): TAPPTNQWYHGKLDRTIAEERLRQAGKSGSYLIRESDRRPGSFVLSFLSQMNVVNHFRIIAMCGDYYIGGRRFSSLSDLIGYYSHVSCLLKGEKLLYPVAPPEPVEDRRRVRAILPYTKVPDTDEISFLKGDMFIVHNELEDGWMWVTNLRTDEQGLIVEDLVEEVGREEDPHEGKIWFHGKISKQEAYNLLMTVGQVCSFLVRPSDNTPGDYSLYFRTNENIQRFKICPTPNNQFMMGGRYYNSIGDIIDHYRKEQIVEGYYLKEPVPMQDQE

B1: phosphorylated SNAP-YEEI fusion (middle T antigen aa 315-331) (peptide)
chain: THQEEEEPQYEEIPIYL
modifications: not fully specified; also: tyrosine phosphorylation in vitro by Fyn, degree not placed
notes: Middle T antigen of Hamster Polyomavirus, aa 315-331 with the Y324EEI motif; also called phosphorylated YEEI; YEEI fusion construct; not shown: SNAP-tag, N-terminal, kept
B2: SH2D1A without biotin (for MST) (natural protein, UniProt O60880 1-128, looked up)
chain: MDAVAVYHGKISRETGEKLLLATGLDGSYLLRDSESVPGVYCLCVLYHGYIYTYRVSQTETGSWSAETAPGVHKRYFRKIKNLISAFQKPDQGIVIPLQYPVEKKSSARSTQGTTGIREDPDVCLKAP
notes: SH2D1A; same linear template as m7, cloned into pIX3.0; source: cell-free (RTS500 PM HY kit, plasmid pIX3.0), partly purified by buffer exchange to PBS and ultracentrifugation
B3: RasaN (N-terminal SH2 domain of Rasa1) without biotin (for MST) (domain or fragment, UniProt P20936 181-272, looked up)
chain: WYHGKLDRTIAEERLRQAGKSGSYLIRESDRRPGSFVLSFLSQMNVVNHFRIIAMCGDYYIGGRRFSSLSDLIGYYSHVSCLLKGEKLLYPV
notes: Rasa1, isolated N-terminal SH2 domain; same linear template as m17, cloned into pIX3.0; source: cell-free (RTS500 PM HY kit, plasmid pIX3.0), partly purified by buffer exchange to PBS and ultracentrifugation
B4: SLP-76 SH2 domain without biotin (for MST) (domain or fragment, UniProt Q13094 422-530, looked up)
chain: WYVSYITRPEAEAALRKINQDGTFLVRDSSKKTTTNPYVLMVLYKDKVYNIQIRYQKESQVYLLGTGLRGKEDFLSVSDIIDYFRKMPLLLIDGKNRGSRYQCTLTHAA
notes: SLP-76; same linear template as m10, cloned into pIX3.0; source: cell-free (RTS500 PM HY kit, plasmid pIX3.0), partly purified by buffer exchange to PBS and ultracentrifugation
B5: phosphorylated SNAP-ADAP fusion protein (ADAP amino acids 570-690) (domain or fragment, human, UniProt O15117 570-690, looked up)
chain: DYDSLKLKKDSLGAPSRPIEDDQEVYDDVAEQDDISSHSQSGSGGIFPPPPDDDIYDGIEEEDADDGFPAPPKQLDMGDEVYDDVDTSDFPVSSAEMSQGTNVGKAKTEEKDLKKLKKQEK
modifications: phosphotyrosine (in vitro phosphorylation by Fyn kinase, approx. 90% of each phosphorylation site; sites in Table S1); BG-647 dye on the SNAP-tag
notes: adhesion and degranulation promoting adapter protein (ADAP), human, section 570-690; Cloned into the SNAP-tag vector pSET7-26b (NEB) via BamHI, XhoI; also called ADAP-P; phosphorylated ADAP; not shown: SNAP-tag, N-terminal, kept
B6: Lck SH2 domain without biotin (for MST) (domain or fragment, UniProt P06239 127-224, looked up)
chain: WFFKNLSRKDAERQLLAPGNTHGSFLIRESESTAGSFSLSVRDFDQNQGEVVKHYKIRNLDNGGFYISPRITFPGLHELVRHYTNASDGLCTRLSRPC
notes: Lck, SH2 domain; same linear template as m8, cloned into pIX3.0; source: cell-free (RTS500 PM HY kit, plasmid pIX3.0), partly purified by buffer exchange to PBS and ultracentrifugation

Key:
Conditions in all cases: one partner purified
[1] = molecular target: T2, Src SH2 domain without biotin (for MST) (UniProt P12931 151-248); test: MST; as for ADAP, with the fluorescent YEEI fusion and 0.05% Tween-20 (v/v) added to the interaction buffer; SH2 proteins (only partly purified) serially diluted
T2 construct: Src, SH2 domain; same linear template as m6, cloned into pIX3.0; source: cell-free (RTS500 PM HY kit, plasmid pIX3.0), partly purified by buffer exchange to PBS and ultracentrifugation

[2] = molecular target: B5; test: MST; SH2 proteins (only partly purified) serially diluted in 1x PBS with 1.75% (v/v) E. coli extract; fluorescent ADAP at 12 nM; 5 min at RT; Monolith NT.115
[3] = molecular target: T1, Rasa1b (Rasa1 sequence 174-447) without …; test: as above

Binder | Kd [2] [nM] | also measured
B1 |  | Kd [1]: ~515 nM
B2 |  | fold weaker binding than the SH2 domains of Src, Lck and Fyn [2]: 6 fold
B3 | ~100 | 
B4 | ~400 | 
B5 |  | Kd [3]: ~100 nM
B6 | ~1000 | 
